Earlier results on one substance are cited in article PMC5457079.

Broadly, the Kd is the concentration at which binding is half-saturated.

For this data set, the target named is insulin (Homo sapiens) (UniProt P01308).

insulin (from UniProt P01308): the Kd was 10 µM.
